Laboratory results taken from patent publication US7005258.

Assays:
[1] = target: Xenopus cdc2 from prophase oocytes, tyrosine phosphorylated (UniProt P24033)
[2] = target: Xenopus cdc2 (34 kD) (UniProt P24033)
[3] = target: Xenopus cdc2/cyclin B complex (UniProt P24033)
[4] = target: Xenopus cdc2 (34 kD) (Xenopus laevis) (UniProt P24033); experiment: co-immunoprecipitation with anti-cdc25 antibody against p13-Sepharose precipitate as total, quantified immunoblot
[5] = target: Xenopus cyclin B2 (Xenopus laevis) (UniProt P13351); experiment: as above
Chain of Xenopus cyclin B2 (Xenopus laevis) (P13351 whole entry): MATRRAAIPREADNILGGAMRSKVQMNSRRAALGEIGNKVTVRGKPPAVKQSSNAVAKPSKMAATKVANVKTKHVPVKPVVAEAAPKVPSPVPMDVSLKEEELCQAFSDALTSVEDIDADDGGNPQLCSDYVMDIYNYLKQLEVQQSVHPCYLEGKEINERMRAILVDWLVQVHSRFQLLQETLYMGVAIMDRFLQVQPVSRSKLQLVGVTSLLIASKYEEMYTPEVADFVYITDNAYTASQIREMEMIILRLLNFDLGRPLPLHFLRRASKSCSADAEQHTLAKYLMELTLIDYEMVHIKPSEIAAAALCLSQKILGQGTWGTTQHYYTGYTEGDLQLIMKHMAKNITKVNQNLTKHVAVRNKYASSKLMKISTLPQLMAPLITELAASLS

[6] = target: Xenopus cyclin B2 (Xenopus laevis) (UniProt P13351); experiment: co-immunoprecipitation, quantified immunoblots
[7] = target: Xenopus cdc2 (34 kD) (Xenopus laevis) (UniProt P24033); experiment: co-immunoprecipitation, quantified immunoblots, metaphase eggs
[8] = tested on: starfish p34^cdc2, tyrosine-phosphorylated, from G2-arrested oocytes
[9] = target: GST-cdc25 A fusion protein (glutathione-S-transferase / human cdc25 A) (human) [GST: P08515]; experiment: cell-based or functional assay

Chain of Xenopus cdc2 (34 kD) (P24033 whole entry): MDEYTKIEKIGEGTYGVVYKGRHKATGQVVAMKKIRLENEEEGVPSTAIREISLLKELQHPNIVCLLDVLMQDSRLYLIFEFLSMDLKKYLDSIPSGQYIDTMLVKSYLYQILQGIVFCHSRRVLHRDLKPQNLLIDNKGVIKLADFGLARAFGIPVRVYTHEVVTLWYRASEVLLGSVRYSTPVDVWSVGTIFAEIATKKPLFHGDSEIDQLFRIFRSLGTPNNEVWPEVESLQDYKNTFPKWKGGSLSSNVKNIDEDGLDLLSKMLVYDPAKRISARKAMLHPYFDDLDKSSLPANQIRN
Chain of Xenopus cdc2 (34 kD) (Xenopus laevis) (P24033 whole entry): as above
Chain of Xenopus cdc25 protein (p72) (Q13972 whole entry): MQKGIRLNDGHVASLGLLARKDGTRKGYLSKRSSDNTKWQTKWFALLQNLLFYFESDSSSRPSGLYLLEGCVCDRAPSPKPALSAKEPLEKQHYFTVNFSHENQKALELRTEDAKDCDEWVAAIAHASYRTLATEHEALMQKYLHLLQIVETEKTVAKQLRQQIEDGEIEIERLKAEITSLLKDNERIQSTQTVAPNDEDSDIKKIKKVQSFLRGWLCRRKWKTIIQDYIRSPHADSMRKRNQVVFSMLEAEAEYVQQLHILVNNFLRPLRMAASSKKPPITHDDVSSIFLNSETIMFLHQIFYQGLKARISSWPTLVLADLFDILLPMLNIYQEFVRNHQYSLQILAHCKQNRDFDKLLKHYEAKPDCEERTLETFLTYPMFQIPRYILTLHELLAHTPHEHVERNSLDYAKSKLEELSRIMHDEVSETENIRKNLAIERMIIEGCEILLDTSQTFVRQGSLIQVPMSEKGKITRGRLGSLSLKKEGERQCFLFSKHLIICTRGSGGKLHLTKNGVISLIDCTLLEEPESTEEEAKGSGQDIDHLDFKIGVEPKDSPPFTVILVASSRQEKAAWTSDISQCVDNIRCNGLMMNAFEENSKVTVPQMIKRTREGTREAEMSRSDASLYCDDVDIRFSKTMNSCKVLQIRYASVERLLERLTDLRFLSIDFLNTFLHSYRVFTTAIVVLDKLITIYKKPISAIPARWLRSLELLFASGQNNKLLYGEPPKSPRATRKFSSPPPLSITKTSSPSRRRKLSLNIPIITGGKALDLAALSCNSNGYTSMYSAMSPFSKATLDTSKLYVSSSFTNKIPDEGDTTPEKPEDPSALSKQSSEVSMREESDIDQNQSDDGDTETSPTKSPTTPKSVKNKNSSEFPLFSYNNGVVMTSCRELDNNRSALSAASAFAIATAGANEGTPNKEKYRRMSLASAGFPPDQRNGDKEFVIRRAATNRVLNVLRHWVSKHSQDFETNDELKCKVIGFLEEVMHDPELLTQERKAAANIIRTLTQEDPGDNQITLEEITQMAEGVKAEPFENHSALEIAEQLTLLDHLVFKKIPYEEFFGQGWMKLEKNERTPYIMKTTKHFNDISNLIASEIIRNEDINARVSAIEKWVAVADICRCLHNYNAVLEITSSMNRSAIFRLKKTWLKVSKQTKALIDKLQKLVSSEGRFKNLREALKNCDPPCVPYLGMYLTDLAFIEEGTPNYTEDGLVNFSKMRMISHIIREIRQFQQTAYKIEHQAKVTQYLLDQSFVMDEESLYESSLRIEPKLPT
Chain of Xenopus cdc2/cyclin B complex (P24033 whole entry, chain 1 of 2): as the sequence (P24033 whole entry) above
Chain of Xenopus cdc2/cyclin B complex (chain, as listed by the source, chain 2 of 2): as the sequence (P13351 whole entry) above
Chain of Xenopus cdc2 from prophase oocytes, tyrosine phosphorylated (P24033 whole entry): as the sequence (P24033 whole entry) above

For Xenopus cdc25 protein (p72), the “histone H1 kinase activity of inactive prophase p13-bound cdc2” value [1] was “Both prophase and metaphase cdc25 stimulated histone H1 kinase activity 12-fold”, the “histone H1 kinase activity in anti-cdc25 immunoprecipitates” value [2] was “Histone H1 kinase activity was detected in anti-cdc25 immunoprecipitates from metaphase eggs” and the “histone H1 kinase activity of cdc2 that is inactive in the absence of cyclin (eggs activated in the presence of cycloheximide)” value [2] was “In neither case did p72 have any effect on the histone H1 kinase activity of cdc2”. For the same substance, the “relative metaphase kinase activity in p13-Sepharose precipitates and anti-cdc25 immunoprecipitates” value [2] was “approximately 20-fold different” and the “histone H1 kinase activity of fully activated cdc2/cyclin from metaphase unfertilized eggs” value [3] was “In neither case did p72 have any effect on the histone H1 kinase activity of cdc2”.
Substance “Xenopus cdc25 protein (p72) (from UniProt Q13972) (enzyme)” has a fold, cdc2 in p13-Sepharose precipitate over cdc2 in anti-cdc25 immunoprecipitate [4] of 20 fold, a fold, cyclin B2 in p13-Sepharose precipitates over cyclin B2 in anti-cdc25 immunoprecipitate [5] of 6 fold and a percent of the full cellular content of cdc25 present in anti-cyclin B2 immunoprecipitates [6] of 20%. The percent of the total population of cyclin B2 associated with cdc25 [6] was 17%, the percent of the cellular content of cdc25 present in anti-cdc2 immunoprecipitates [7] was 20% and the percent of the total cellular cdc2 present in anti-cdc25 immunoprecipitates [7] was 5%.
In the case of “GST-cdc25 A fusion protein (glutathione-S-transferase / human cdc25 A)”, the “tyrosine dephosphorylation of p34^cdc2” value [8] is reported as “Treatment with purified GST-cdc25A protein induced almost complete tyrosine dephosphorylation of p34^cdc2”.
In the case of “human cyclin B1 expressed as fusion protein with GST (from UniProt P14635 1-433)”, the amount of cyclin B1 at which activation of cdc25 A (10 pmoles) plateaus, RCML phosphatase assay [9] is reported as 10 pmol, the phosphatase activity of cdc25 A in the presence of p13 [9] is reported as 8 fold and the tyrosine phosphatase activity of cdc25 A against 32P-labelled RCML [9] is reported as 4 fold.
With “human cyclin B2 expressed as fusion protein with GST (from UniProt O95067 1-398)” the tyrosine phosphatase activity of cdc25 A against 32P-labelled RCML [9] was 4 fold.
